We go through six molecules from patent EP2149585A1 (Novartis Vaccines and Diagnostics, Inc., dated 2010).

For experiment [1], the target named is T1, CD40 Domain 2 peptide, spot 20 (human).
T1 construct: 10mer on a SPOTs membrane
T1 peptide: HKYCDPNLGL
As to the kind of experiment: SPOTs membrane of 10mer peptides, stripped and reprobed.

Experiment [2] addresses T2, CD40 Domain 2 peptide, spot 22 (human).
T2 construct: 10mer on a SPOTs membrane
T2 peptide: YCDPNLGLRV
The description is as above.

Experiment [3] concerns the target T3, CD40 Domain 2 peptide, spot 21 (human).
T3 construct: 10mer on a SPOTs membrane
T3 peptide: KYCDPNLGLR
The description is as above.

Experiment [4] concerns the target T4, CD40 extracellular Domain 2 GST fusion protein (human, UniProt P25942 61-104).
T4 construct: Secreted from insect cells with a GP67 secretion signal; not shown: glutathione S-transferase (GST) fusion partner
T4 chain: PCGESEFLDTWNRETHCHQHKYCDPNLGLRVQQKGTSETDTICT
As to the kind of experiment: SDS-PAGE and western blot of GST-domain fusion proteins from insect cell supernatant. A general note: A western blot detects proteins with antibodies after separation by electrophoresis.

Experiment [5] concerns the target T5, Recombinant soluble CD40-his (human, UniProt P25942 21-193).
T5 construct: Soluble recombinant CD40 with his tag used in Biacore
As to the kind of experiment: Biacore SPR: antibody captured on immobilized protein A, CD40-his flowed at varying concentrations; 1:1 model, global fit. (In general: In SPR one partner is held on a chip, and binding of the other changes the refractive index at the surface.)

For experiment [6], the target named is T6, CD40 extracellular Domain 4 GST fusion protein (human, UniProt P25942 145-187).
T6 construct: Expressed in insect cells with a GP67 secretion signal; only the domain stood in the assay; not shown: GST fusion partner
T6 chain: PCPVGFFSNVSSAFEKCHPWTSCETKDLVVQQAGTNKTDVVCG
As to the kind of experiment: Western blot, GST fusion of the domain from insect cell supernatant.

For experiment [7], the target named is T7, CD40 extracellular Domain 1 GST fusion protein (human, UniProt P25942 21-60).
T7 construct: Expressed in insect cells with a GP67 secretion signal; only the domain stood in the assay; not shown: GST fusion partner
T7 chain: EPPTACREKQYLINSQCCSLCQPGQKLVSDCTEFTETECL
Described as above.

Experiment [8] concerns the target T8, CD40 extracellular Domain 3 GST fusion protein (human, UniProt P25942 105-144).
T8 construct: Expressed in insect cells with a GP67 secretion signal; only the domain stood in the assay; not shown: GST fusion partner
T8 chain: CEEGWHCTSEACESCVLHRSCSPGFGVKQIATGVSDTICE
The description is as above.

Experiment [9] concerns the target T9, CD40 extracellular Domain 2 GST fusion protein (human, UniProt P25942 61-104).
T9 construct: Expressed in insect cells with a GP67 secretion signal; not shown: GST fusion partner
T9 chain: T4 chain
As to the kind of experiment: Western blot, GST fusion of Domain 2 from insect cell supernatant.

Experiment [10] deals with T10, CD40 Domain 2 10mer peptide, spot 21 (KYCDPNLGLR) (human).
T10 peptide: KYCDPNLGLR
As to the kind of experiment: SPOTs peptide membrane stripped and reprobed with the mAb; spot 21 listed as recognized.

In experiment [11] the target is T11, CD40 Domain 2 10mer peptide, spot 20 (HKYCDPNLGL) (human).
T11 peptide: HKYCDPNLGL
As to the kind of experiment: SPOTs peptide membrane stripped and reprobed with the mAb; spot 20 listed as recognized.

Experiment [12] concerns the target T12, CD40 Domain 2 10mer peptide, spot 22 (YCDPNLGLRV) (human).
T12 peptide: YCDPNLGLRV
As to the kind of experiment: SPOTs peptide membrane stripped and reprobed with the mAb; spot 22 listed as recognized.

For experiment [13], the target named is T13, CD40 Domain 2 peptide, spot 18 (human).
T13 construct: 10mer on a SPOTs membrane
T13 peptide: HQHKYCDPNL
As to the kind of experiment: SPOTs membrane of 10mer peptides, antibody at 10 µg/ml.

Experiment [14] addresses T1, CD40 Domain 2 peptide, spot 20. The description is as above.
Experiment [15] concerns the target T2, CD40 Domain 2 peptide, spot 22. The experiment is described as above.
Experiment [16] addresses T3, CD40 Domain 2 peptide, spot 21. Described as above.
Experiment [17] addresses T14, CD40 Domain 2 peptide, spot 19 (human).
T14 construct: 10mer on a SPOTs membrane
T14 peptide: QHKYCDPNLG
The description is as above.

Experiment [18] concerns the target human CD40 on the cell surface (human, UniProt P25942 20-277). As to the kind of experiment: cell-based or functional assay.
Experiment [19] addresses T5, Recombinant soluble CD40-his. As to the kind of experiment: Biacore SPR, CD40-his over captured antibody.
Experiment [20] concerns the target T12, CD40 Domain 2 10mer peptide, spot 22 …. As to the kind of experiment: SPOTs peptide membrane probed with the mAb at 10 µg/ml, anti-human IgG beta-galactosidase secondary; spot 22 listed as positive.
Experiment [21] concerns the target T15, CD40 Domain 2 10mer peptide, spot 18 (HQHKYCDPNL) (human).
T15 peptide: HQHKYCDPNL
As to the kind of experiment: SPOTs peptide membrane probed with the mAb at 10 µg/ml, anti-human IgG beta-galactosidase secondary; spot 18 listed as positive.

In experiment [22] the target is T10, CD40 Domain 2 10mer peptide, spot 21 …. As to the kind of experiment: SPOTs peptide membrane probed with the mAb at 10 µg/ml, anti-human IgG beta-galactosidase secondary; spot 21 listed as positive.
Experiment [23] addresses T16, CD40 Domain 2 10mer peptide, spot 19 (QHKYCDPNLG) (human).
T16 peptide: QHKYCDPNLG
As to the kind of experiment: SPOTs peptide membrane probed with the mAb at 10 µg/ml, anti-human IgG beta-galactosidase secondary; spot 19 listed as positive.

The target in experiment [24] is T11, CD40 Domain 2 10mer peptide, spot 20 …. As to the kind of experiment: SPOTs peptide membrane probed with the mAb at 10 µg/ml, anti-human IgG beta-galactosidase secondary; spot 20 listed as positive.

Sequence of human CD40 on the cell surface (P25942 20-277): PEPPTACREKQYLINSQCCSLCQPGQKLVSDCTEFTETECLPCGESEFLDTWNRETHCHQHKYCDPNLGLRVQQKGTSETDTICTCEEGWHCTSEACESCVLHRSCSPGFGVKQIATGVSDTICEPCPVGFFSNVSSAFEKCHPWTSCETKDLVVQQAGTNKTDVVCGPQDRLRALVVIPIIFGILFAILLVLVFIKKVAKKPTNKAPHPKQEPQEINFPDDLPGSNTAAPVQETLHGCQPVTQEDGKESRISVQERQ

B1: CHIR-5.9 (antibody, human IgG1, kappa)
heavy: not shown
light: AIVMTQPPLSSPVTLGQPASISCRSSQSLVHSDGNTYLNWLQQRPGQPPRLLIYKFFRRLSGVPDRFSGSGAGTDFTLKISRVEAEDVGVYYCMQVTQFPHTFGQGTRLEIKRTVAAPSVFIFPPSDEQLKSGTASVVCLLNNFYPREAKVQWKVDNALQSGNSQESVTEQDSKDSTYSLSSTLTLSKADYEKHKVYACEVTHQGLSSPVTKSFNRGEC
notes: also called mAb CHIR-5.9
For the molecule B1, the binding result in [1], in experiment [2], in experiment [3] and in experiment [4] was “binds” throughout. Further, the Kd (in general, the constant that tells how readily two partners part at equilibrium) in experiment [5] came out at 12.2 nM. In [5], the off-rate (koff) – broadly, the first-order rate constant of dissociation – came to 0.015 s⁻¹. For the same molecule, the association rate constant (kon) (in general, the rate constant with which the complex forms) in [5] is 1.24e+06 M⁻¹ s⁻¹.

B2: monoclonal antibody CHIR-5.9 (antibody, human IgG1, kappa)
light: B1 light
heavy: not shown
notes: Fully human IgG1 kappa anti-human CD40 mAb; Leader residues (1-20 light, 1-19 heavy) left out as stated; also called mAb CHIR-5.9
As to B2, the binding result in experiment [6] is “no binding”; in experiment [7], “no binding”; in experiment [8], “no binding”; in [9] it was “binds”.

B3: anti-CD40 monoclonal antibody CHIR-5.9 (antibody, human IgG1, kappa)
light: B1 light
heavy: not shown
notes: Fully human IgG1 kappa; also called mAb CHIR-5.9; CHIP-5.9
With B3, the binding result in experiment [10], in [11] and in experiment [12] was “binds” each time.

B4: CHIR-12.12 (antibody, human IgG1, kappa)
heavy: not shown
light: DIVMTQSPLSLTVTPGEPASISCRSSQSLLYSNGYNYLDWYLQKPGQSPQVLISLGSNRASGVPDRFSGSGSGTDFTLKISRVEAEDVGVYYCMQARQTPFTFGPGTKVDIRRTVAAPSVFIFPPSDEQLKSGTASVVCLLNNFYPREAKVQWKVDNALQSGNSQESVTEQDSKDSTYSLSSTLTLSKADYEKHKVYACEVTHQGLSSPVTKSFNRGEC
As to B4, the binding result in experiment [13], in experiment [14], in experiment [15], in [16], in [17] and in [4] was “binds” throughout. In experiment [18], the “average IC50 of inhibition of CD40 ligand-induced lymphocyte proliferation, lymphocytes from 6 donors” value was determined as 0.047 nM. Further, the “fold difference in the off rate against CHIR-5.9” value in experiment [19] was 121 fold. The “fold higher affinity against CHIR-5.9” value in [19] was 24 fold. The Kd in experiment [5] came out at 0.51 nM. In addition, the off-rate (koff) in [5] is 0.000124 s⁻¹. Further, the on-rate constant (kon) in experiment [5] turned out to be 241000 M⁻¹ s⁻¹.

B5: anti-CD40 monoclonal antibody CHIR-12.12 (antibody, human IgG1, kappa)
light: B4 light
heavy: not shown
notes: Fully human IgG1 kappa
Take B5: the binding result in experiment [20], in [21], in [22], in experiment [23] and in experiment [24] was “binds” throughout.

B6: monoclonal antibody CHIR-12.12 (antibody, human IgG1, kappa)
light: B4 light
heavy: not shown
notes: Fully human IgG1 kappa anti-human CD40 mAb; Leader residues (1-20 light, 1-19 heavy) left out as stated
Turning to B6, the binding result in experiment [6] is “no binding”; in experiment [7], “no binding”; in experiment [8] it was “no binding”; in experiment [9], “binds”.
